Test results taken from patent US20150119340A1, “FUSION PEPTIDE AND USE THEREOF FOR CELL MEMBRANE PENETRATING” (Samsung Electronics Co., Ltd., priority 2013, published 2015).

Tested on: MDA-MB-231 cells
Test: Anticancer effect: cell viability (proliferation assay kit)
Assay type: cell-based
Conditions: various concentrations, 72 hours after the conjugate treatment, FIG. 11
Protocol: MDA-MB-231 cells were incubated at the amount of about 5,000-8,000 cells/well in 96 well plate for 24 hours, and then, treated with each of the obtained conjugates MTS-BAA-p16M7 and Tat-p16M7 at various concentrations (refer to FIG. 11). 24 hours or 72 hours after, the viability of the cells was measured by reading the fluorescent intensity of viable cells using titer® proliferation assay kit (Promega) according to manufacturer's manual. The results were normalized based on the results from a control (non-treated) group, and plotted (the value of the control group: “1”). The experiment was conducted in triplicate, and the error was treated using a standard deviation.
The obtained results (results obtained at 72 hours after the conjugate treatment) are illustrated in FIG. 11.

B1: Tat-p16M7: Comparison conjugate of TAT peptide and p16M7 (SEQ ID NO: 20-SEQ ID NO: 16) (protein)
chain: RKKRRQRRRMEPAAGSSMEPSADKLATAAARGRVEEVRALLEAGADPNAPNSYGRRPIQVMMMGSARVAELLLKHGAEPNSADPATSTRPVHDAAREGFLDTLVVLHRAGARLDARDAWGRTPVDLAEELGHRDVARYLRAAAGGTRGSNHARIDAAEGPSDIPD
modifications: Synthetic (TAT peptide); Synthetic (p16 variant (p16M7))
- inhibitory effect on cancer cell proliferation (relative viability): nearly no inhibitory effect on cancer cell proliferation
